Measured values as given in paper PMC5773536.

Tests used:
[1] = biological target: A3B4 subunit of glycinin accumulated in transgenic soybean seeds (post-translationally processed mature form) (Glycine max (soybean)); test: SEC; soluble extract of dry mature transgenic seeds on a Hi-Load 16/600 Superdex 200 pg column in potassium phosphate buffer (35 mM potassium phosphate, pH 7.6, 0.4 M NaCl), 1.0 mL/min; fractions analysed by SDS-PAGE and western blot with anti-A3B4 serum; size by comparison with molecular weight standards
[2] = biological target: recombinant luminal domain of GmVSR (soybean vacuolar sorting receptor) (Glycine max (soybean)); test: SPR; GmVSR(LU) amine-coupled on a CM5 chip (1000-1200 RU), BIACORE2000; GST fusion proteins injected 180 s, eluted with salt buffer 180 s, 25 °C, 30 uL/min; control flow cell subtracted; three independent experiments

Row | stoichiometry N [1] | Kd [2] [nM] | Molecule
1 | 6 | – | A3B4 subunit of glycinin accumulated in transgenic soybean seeds (post-translationally processed mature form) (natural protein)
2 | – | 98 | PQESQKRAVA [GST fused with the 10-residue C-terminal peptide of A1aB1b]
